According to the supplement of paper PMC9428881:
± gives the standard error.

Assay: background-corrected fluorescence of 3'-dye-labeled ssDNA relative to brightest sequence (3'-GCGCG) (fraction); higher = brighter dye fluorescence (less quenching)
Method in brief: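 By light-directed phosphoramidite synthesis, single-stranded DNA ending in a 3' Cy3 or Cy5 dye beside each of 1024 permuted pentamers was built on glass slides. Scanning at 532 or 635 nm took place before and after overnight ethylenediamine/ethanol deprotection. Data are means of 10 features per array over at least 3 syntheses. Fluorescence is corrected for unlabeled-oligo background and scaled to the brightest sequence.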

| Sequence | background-corrected fluorescence (dye: Cy3 (3' terminal)) | background-corrected fluorescence (dye: Cy5 (3' terminal)) |
| --- | --- | --- |
| TTTTTTGATCAGCAGCATCATTTTTTTTTTTTTTTCGTTG [GTTGC] | 0.533 ± 0.023 | 0.422 ± 0.051 |
| TTTTTTCAGCATGCGCATGCTTTTTTTTTTTTTTTGTATA [ATATG] | 0.55 ± 0.031 | 0.404 ± 0.027 |
| TTTTTTCATGCTCATCATGCTTTTTTTTTTTTTTTGAGGA [AGGAG] | 0.747 ± 0.023 | 0.669 ± 0.059 |
| TTTTTTCAGCATCATGATGATTTTTTTTTTTTTTTGTGCC [CCGTG] | 0.438 ± 0.022 | 0.332 ± 0.028 |
| TTTTTGCATCATCATGCGCATTTTTTTTTTTTTTTTGGAT [TAGGT] | 0.617 ± 0.023 | 0.458 ± 0.036 |
| TTTTTTGAGCAGCATGAGCATTTTTTTTTTTTTTTCTTCT | 0.441 ± 0.027 | 0.342 ± 0.027 |
| TTTTTGCAGCAGCATGATGATTTTTTTTTTTTTTTTTTCC [CCTTT] | 0.363 ± 0.017 | 0.253 ± 0.015 |
| TTTTTTCATGATGCGCATCATTTTTTTTTTTTTTTGCATG [GTACG] | 0.508 ± 0.023 | 0.385 ± 0.023 |
| TTTTTGCATGCTCAGCATGATTTTTTTTTTTTTTTTAGTC [CTGAT] | 0.492 ± 0.026 | 0.363 ± 0.023 |
| TTTTTTCAGCATGAGCATGCTTTTTTTTTTTTTTTGTCTA [ATCTG] | 0.539 ± 0.01 | 0.381 ± 0.021 |
| TTTTTTGAGCAGCATGATGATTTTTTTTTTTTTTTCTTCC [CCTTC] | 0.345 ± 0.016 | 0.229 ± 0.015 |
| TTTTTTCAGCATGCTGATGCTTTTTTTTTTTTTTTGTACA [ACATG] | 0.528 ± 0.0051 | 0.399 ± 0.019 |
| TTTTTTGAGCATGATCATGCTTTTTTTTTTTTTTTCTCGA [AGCTC] | 0.599 ± 0.011 | 0.49 ± 0.03 |
| TTTTTTGAGCATGCTCAGCATTTTTTTTTTTTTTTCTAGT [TGATC] | 0.612 ± 0.019 | 0.451 ± 0.029 |
| TTTTTTCAGCATCAGCATGCTTTTTTTTTTTTTTTGTGTA [ATGTG] | 0.595 ± 0.019 | 0.434 ± 0.027 |
| TTTTTTCATGCGCAGCATGCTTTTTTTTTTTTTTTGATTA [ATTAG] | 0.547 ± 0.022 | 0.424 ± 0.034 |
| TTTTTGCATCATGCTCATGATTTTTTTTTTTTTTTTGAGC [CGAGT] | 0.556 ± 0.024 | 0.422 ± 0.08 |

| Sequence | background-corrected fluorescence (dye: Cy3 (3' terminal)) | background-corrected fluorescence (dye: Cy5 (3' terminal)) |
| --- | --- | --- |
| TTTTTTCATGATCATCAGCATTTTTTTTTTTTTTTGCGGT [TGGCG] | 0.743 ± 0.026 | 0.566 ± 0.036 |
| TTTTTTGATGCTGCTGCTGCTTTTTTTTTTTTTTTCAAAA [AAAAC] | 0.569 ± 0.015 | 0.47 ± 0.03 |
| TTTTTTCATCATGAGCATCATTTTTTTTTTTTTTTGGCTG [GTCGG] | 0.469 ± 0.016 | 0.364 ± 0.018 |
| TTTTTTGCTCATGCTGAGCATTTTTTTTTTTTTTTAGACT [TCAGA] | 0.519 ± 0.025 | 0.389 ± 0.039 |
| TTTTTTGCTGCTGCTGAGCATTTTTTTTTTTTTTTAAACT [TCAAA] | 0.496 ± 0.0053 | 0.349 ± 0.028 |
| TTTTTGCAGCATGCTGATCATTTTTTTTTTTTTTTTTACG [GCATT] | 0.5 ± 0.023 | 0.398 ± 0.08 |
| TTTTTTGCGCATGATCAGCATTTTTTTTTTTTTTTATCGT [TGCTA] | 0.605 ± 0.011 | 0.449 ± 0.027 |
| TTTTTTGCGCATGAGCAGCATTTTTTTTTTTTTTTATCTT [TTCTA] | 0.458 ± 0.0056 | 0.35 ± 0.024 |
| TTTTTTCAGCATGCTGCGCATTTTTTTTTTTTTTTGTAAT [TAATG] | 0.531 ± 0.019 | 0.435 ± 0.043 |
| TTTTTTGAGCAGCATGATGCTTTTTTTTTTTTTTTCTTCA [ACTTC] | 0.455 ± 0.027 | 0.382 ± 0.041 |
| TTTTTTCATCAGCATGATCATTTTTTTTTTTTTTTGGTCG [GCTGG] | 0.526 ± 0.035 | 0.405 ± 0.028 |
| TTTTTTCATGCTCATGATGCTTTTTTTTTTTTTTTGAGCA [ACGAG] | 0.585 ± 0.025 | 0.43 ± 0.035 |
| TTTTTTCATGCTCATGCGCATTTTTTTTTTTTTTTGAGAT [TAGAG] | 0.578 ± 0.051 | 0.439 ± 0.023 |
| TTTTTTGATCATGCTGCTCATTTTTTTTTTTTTTTCGAAG [GAAGC] | 0.609 ± 0.013 | 0.463 ± 0.021 |
| TTTTTTGATCATGCTGATCATTTTTTTTTTTTTTTCGACG [GCAGC] | 0.602 ± 0.013 | 0.491 ± 0.024 |
| TTTTTTGCTGCGCATGCTGATTTTTTTTTTTTTTTAATAC [CATAA] | 0.453 ± 0.011 | 0.317 ± 0.019 |
| TTTTTTCATCATCATGATGATTTTTTTTTTTTTTTGGGCC [CCGGG] | 0.517 ± 0.031 | 0.367 ± 0.032 |
